What all share (test): BLI
In general terms: In BLI a coated tip is dipped into the sample, and binding shifts an interference pattern.

Experiment [1] addresses T1, Full-length ETV4 Glu373Ala (UniProt P43268 1-484, Glu373Ala).
T1 sequence (looked up): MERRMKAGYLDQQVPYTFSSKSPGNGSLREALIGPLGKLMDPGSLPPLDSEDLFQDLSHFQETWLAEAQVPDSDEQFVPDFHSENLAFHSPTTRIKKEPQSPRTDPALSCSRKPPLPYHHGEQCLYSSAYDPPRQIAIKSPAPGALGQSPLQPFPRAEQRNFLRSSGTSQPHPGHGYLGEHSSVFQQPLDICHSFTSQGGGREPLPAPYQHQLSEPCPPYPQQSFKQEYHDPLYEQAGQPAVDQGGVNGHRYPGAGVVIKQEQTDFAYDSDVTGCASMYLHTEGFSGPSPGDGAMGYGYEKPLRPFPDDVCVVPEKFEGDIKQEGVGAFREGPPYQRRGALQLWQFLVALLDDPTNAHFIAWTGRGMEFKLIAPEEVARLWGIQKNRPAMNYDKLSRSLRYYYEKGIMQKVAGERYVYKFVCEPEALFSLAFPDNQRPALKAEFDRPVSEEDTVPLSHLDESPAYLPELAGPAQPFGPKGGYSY

Experiment [2] addresses T2, Full-length ETV4 Lys370Ala (UniProt P43268 1-484, Lys370Ala).
T2 sequence (looked up): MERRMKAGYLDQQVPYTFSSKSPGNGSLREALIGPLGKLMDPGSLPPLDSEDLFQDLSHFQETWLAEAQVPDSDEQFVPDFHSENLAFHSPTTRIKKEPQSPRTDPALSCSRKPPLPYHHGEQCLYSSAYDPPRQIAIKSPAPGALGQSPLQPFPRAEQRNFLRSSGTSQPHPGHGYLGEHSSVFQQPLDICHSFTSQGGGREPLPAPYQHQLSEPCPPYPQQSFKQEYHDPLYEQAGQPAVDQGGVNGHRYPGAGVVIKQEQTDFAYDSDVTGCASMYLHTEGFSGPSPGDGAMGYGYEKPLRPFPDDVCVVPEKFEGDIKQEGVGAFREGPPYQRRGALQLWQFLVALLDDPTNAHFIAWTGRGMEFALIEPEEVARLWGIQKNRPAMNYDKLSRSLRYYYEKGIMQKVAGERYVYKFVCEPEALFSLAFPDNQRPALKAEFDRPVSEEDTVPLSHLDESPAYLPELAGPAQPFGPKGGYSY

In another experiment the target is Full-length FOS (UniProt P01100 1-380).
Sequence of Full-length FOS (P01100 whole entry): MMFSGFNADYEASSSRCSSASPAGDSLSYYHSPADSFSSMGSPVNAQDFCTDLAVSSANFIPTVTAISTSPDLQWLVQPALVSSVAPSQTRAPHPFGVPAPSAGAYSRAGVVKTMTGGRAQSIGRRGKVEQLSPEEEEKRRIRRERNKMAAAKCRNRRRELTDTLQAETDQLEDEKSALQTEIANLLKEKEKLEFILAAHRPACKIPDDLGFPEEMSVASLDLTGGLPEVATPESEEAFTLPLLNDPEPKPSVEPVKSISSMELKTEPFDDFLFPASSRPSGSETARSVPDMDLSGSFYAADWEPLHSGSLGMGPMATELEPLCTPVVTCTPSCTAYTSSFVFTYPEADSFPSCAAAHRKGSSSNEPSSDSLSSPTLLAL
The target in experiment [3] is T3, Full-length ETV4 Thr363Ala (UniProt P43268 1-484, Thr363Ala).
T3 sequence (looked up): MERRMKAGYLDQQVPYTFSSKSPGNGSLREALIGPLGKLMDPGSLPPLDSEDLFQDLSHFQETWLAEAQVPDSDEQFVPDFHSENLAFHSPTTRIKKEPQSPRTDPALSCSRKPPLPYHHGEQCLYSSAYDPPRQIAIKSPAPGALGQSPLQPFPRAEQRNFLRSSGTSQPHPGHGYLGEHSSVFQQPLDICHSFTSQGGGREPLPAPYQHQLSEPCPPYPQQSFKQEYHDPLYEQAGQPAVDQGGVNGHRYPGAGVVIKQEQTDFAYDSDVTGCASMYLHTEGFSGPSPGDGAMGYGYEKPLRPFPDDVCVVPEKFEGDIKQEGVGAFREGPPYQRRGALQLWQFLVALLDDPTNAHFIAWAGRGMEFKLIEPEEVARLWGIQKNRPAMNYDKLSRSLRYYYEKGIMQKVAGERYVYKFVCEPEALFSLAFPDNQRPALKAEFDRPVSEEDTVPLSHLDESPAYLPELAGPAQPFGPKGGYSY

Another experiment has as its target JUN/FOS heterodimers (UniProt P05412 1-331; P01100 1-380).

The Kd is the equilibrium constant for the complex coming apart. A high value points to a looser complex.

Sequence of JUN/FOS heterodimers (P05412 whole entry, chain 1 of 2): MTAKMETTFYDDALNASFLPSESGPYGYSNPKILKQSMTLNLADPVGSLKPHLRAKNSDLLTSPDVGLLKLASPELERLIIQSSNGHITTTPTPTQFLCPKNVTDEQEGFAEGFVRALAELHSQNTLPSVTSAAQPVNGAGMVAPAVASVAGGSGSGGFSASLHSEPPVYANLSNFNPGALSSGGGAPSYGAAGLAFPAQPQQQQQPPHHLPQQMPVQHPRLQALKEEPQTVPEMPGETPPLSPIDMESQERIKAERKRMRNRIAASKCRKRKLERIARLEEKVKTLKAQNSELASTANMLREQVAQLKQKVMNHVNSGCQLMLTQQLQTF
Sequence of JUN/FOS heterodimers (P01100 whole entry, chain 2 of 2): as the sequence (P01100 whole entry) above

B1: MED25 ACID (residues 391–553), biotinylated ligand for biolayer interferometry (domain or fragment, human, UniProt Q71SY5 391-553, looked up)
chain: GQQSVSNKLLAWSGVLEWQEKPKPASVDANTKLTRSLPCQVYVNHGENLKTEQWPQKLIMQLIPQQLLTTLGPLFRNSRMVQFHFTNKDLESLKGLYRIMGNGFAGCVHFPHTAPCEVRVLMLLYSSKKKIFMGLIPYDQSGFVNGIRQVITNHKQVQQQKLE
modifications: biotin (biotinylated; D-biotin added at the induction point)
As to B1, the binding result in experiment [1], in experiment [2] and in experiment [3] was “binds” in each case. In addition, the figures for the dissociation constant Kd with Full-length FOS and with JUN/FOS heterodimers were 9 nM and 5 nM, respectively.

The record behind these values is article PMC5632138 (Journal of molecular biology, 2017).
